The experiment deals with Human IGF Receptor (Type I IGF receptor) (human) (UniProt P08069). The experiment is described as follows: microtiter plate antibody capture competition assay with IGF Type I receptor.
Chain of Human IGF Receptor (Type I IGF receptor) (human) (P08069 31-1367 limits assumed): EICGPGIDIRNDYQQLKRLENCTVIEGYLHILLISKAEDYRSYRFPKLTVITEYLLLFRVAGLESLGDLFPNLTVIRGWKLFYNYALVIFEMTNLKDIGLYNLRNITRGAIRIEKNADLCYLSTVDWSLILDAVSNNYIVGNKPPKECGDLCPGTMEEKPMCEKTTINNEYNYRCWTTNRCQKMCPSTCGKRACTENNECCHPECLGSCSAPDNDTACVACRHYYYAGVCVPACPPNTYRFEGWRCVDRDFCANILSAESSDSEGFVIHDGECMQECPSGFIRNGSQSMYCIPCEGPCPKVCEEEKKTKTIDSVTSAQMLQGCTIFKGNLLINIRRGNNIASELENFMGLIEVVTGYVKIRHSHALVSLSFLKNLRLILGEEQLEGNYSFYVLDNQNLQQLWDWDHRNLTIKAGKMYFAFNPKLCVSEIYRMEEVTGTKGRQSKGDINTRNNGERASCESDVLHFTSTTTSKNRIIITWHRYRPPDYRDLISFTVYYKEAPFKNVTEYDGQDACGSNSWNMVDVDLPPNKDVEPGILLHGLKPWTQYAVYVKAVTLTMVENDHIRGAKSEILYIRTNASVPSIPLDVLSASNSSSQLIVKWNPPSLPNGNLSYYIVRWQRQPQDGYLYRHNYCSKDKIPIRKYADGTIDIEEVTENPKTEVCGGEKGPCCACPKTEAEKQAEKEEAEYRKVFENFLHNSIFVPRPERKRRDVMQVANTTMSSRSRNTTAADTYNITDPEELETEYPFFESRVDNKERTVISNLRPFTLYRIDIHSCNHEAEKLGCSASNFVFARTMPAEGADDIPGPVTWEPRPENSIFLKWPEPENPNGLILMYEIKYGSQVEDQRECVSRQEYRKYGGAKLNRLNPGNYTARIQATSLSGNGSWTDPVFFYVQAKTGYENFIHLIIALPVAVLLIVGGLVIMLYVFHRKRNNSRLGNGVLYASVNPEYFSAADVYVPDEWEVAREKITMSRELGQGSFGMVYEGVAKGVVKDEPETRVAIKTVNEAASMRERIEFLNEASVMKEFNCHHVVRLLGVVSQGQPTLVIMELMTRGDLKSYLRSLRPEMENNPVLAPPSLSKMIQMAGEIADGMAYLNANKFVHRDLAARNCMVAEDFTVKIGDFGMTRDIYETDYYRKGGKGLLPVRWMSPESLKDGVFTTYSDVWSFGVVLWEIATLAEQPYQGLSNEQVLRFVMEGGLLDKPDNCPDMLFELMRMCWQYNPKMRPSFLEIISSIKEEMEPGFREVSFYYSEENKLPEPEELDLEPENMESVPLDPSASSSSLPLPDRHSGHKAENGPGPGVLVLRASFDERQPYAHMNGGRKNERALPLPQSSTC

With “KP-insulin (SEQ. ID. NOS. 2 & 4) (ligand; other documents disagree on this pair)”, the Affinity for IGFR (compared to that of human insulin) turned out to be 90.

The values above are taken from patent US20110059887A1.
